Consider one substance from article PMC2722044.

Experiment [1] addresses VLRB.2DMut13, in vitro affinity-matured variant of VLRB.2D (lamprey). The experiment can be described thus: ITC.
Experiment [2] has as its target VLRB.2D, lamprey variable lymphocyte receptor B specific for hen egg white lysozyme (lamprey). The experiment is described as follows: ITC.

Regarding “hen egg white lysozyme (from UniProt P00698 19-147) (enzyme)”, the results for the Kd in experiment [1] and in experiment [2] were 34 nM and 430 nM, respectively.
